Consider 1 molecule from publication PMC11347664, “KHSRP ameliorates acute liver failure by regulating pre-mRNA splicing through its interaction with SF3B1” (Cell Death & Disease, 2024).

The target of this experiment is T1, SF3B1-3 (pET15b-SF3B1-3, amino acids 955–1304) (UniProt O75533 955-1304).
T1 construct: SF3B1, amino acids 955–1304, HEAT 11–22 domain; methods are in the supplement; also called HEAT 11–22 domain of SF3B1; source: recombinant protein from pET15b-SF3B1-3
Briefly: pull-down; cell-free system; recombinant KHSRP-KH4Q and SF3B1-3; inputs and pulled-down proteins detected by Coomassie staining and Western blotting. The note with it: both partners purified.

T1 sequence (O75533 955-1304): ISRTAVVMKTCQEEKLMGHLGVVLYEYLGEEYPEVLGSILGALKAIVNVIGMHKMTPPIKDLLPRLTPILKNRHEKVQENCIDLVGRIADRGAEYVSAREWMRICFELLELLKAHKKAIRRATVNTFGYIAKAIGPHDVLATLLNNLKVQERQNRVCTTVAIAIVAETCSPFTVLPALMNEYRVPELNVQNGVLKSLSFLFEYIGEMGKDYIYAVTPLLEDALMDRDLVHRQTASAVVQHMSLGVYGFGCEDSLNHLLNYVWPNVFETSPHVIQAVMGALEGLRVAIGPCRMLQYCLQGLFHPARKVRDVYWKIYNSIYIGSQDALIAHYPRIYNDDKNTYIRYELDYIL

B1: KHSRP-KH4Q (pET15b-KHSRP-KH4Q, amino acids 435–710) (domain or fragment, UniProt Q92945 435-710, looked up)
chain: KCGLVIGRGGENVKAINQQTGAFVEISRQLPPNGDPNFKLFIIRGSPQQIDHAKQLIEEKIEGPLCPVGPGPGGPGPAGPMGPFNPGPFNQGPPGAPPHAGGPPPHQYPPQGWGNTYPQWQPPAPHDPSKAAAAAADPNAAWAAYYSHYYQQPPGPVPGPAPAPAAPPAQGEPPQPPPTGQSDYTKAWEEYYKKIGQQPQQPGAPPQQDYTKAWEEYYKKQAQVATGGGPGAPPGSQPDYSAAWAEYYRQQAAYYGQTPGPGGPQPPPTQQGQQQA
notes: methods are in the supplement; also called KH4–Q-rich domain of KHSRP; source: recombinant protein from pET15b-KHSRP-KH4Q
B1: the binding result is “binds”.
